The RNAGym collection of RNA variant scans (doi:10.7554/elife.80360)

B1: CPEB3 Ribozyme (parent)
chain: GGGGGCCACAGCAGAAGCGUUCACGUCGCGGCCCCUGUCAGAUUCUGGUGAAUCUGCGAAUUCUGCUGU

Variants of: B1
Experiment: self-cleavage, relative activity (ratio to wild type); higher = more cleavage; co-transcriptional

Variant	self-cleavage
C18G C54U	0.15
C18G C54G	0.0613
C18G C57G	0.17
A16U C63U	0.732
A16U C63A	0.501
G17C G68U	0.21
G17C U20C	0.157
C18A G25A	0.163
G17U G47U	0.661
G17C C29G	0.931
G17C C29U	0.199
C18A G41A	0.156
A16U U36G	0.111
G17U G65C	0.218
A16U U21G	0.294
A16U U21C	0.322
C18A C66G	0.147
C18A C66U	0.153
C18A C66A	0.13
G17U U36C	0.252
A16G U55A	0.659
A16G U55G	0.67
C18G C66U	0.215
C18G C66G	0.0954

Variant	self-cleavage
G17A A42G	0.286
C18A C27U	0.12
C18A C27G	0.112
A16U A52U	0.801
A16U A52C	0.856
A16U A23C	0.701
C18G C35A	0.0628
G17C C45A	0.119
C18A G48A	0.227
C18A G48C	0.146
C18G U38A	0.158
G17A C63U	0.313
C18A G58C	0.193
G17U A52U	0.429
A16U G50A	0.884
A16U G50C	0.762
G17U C54A	0.188
G17U C54U	0.461
G17U C32U	0.514
G17U C32G	0.135
C18A U26C	0.17
C18A U26G	0.118
G17A	0.592
G17C	0.166

Variant	self-cleavage
G17U	0.643
C18G G65U	0.161
A16U C29U	0.117
G17C G31A	0.111
G17U C33G	0.224
G17A A40G	0.344
G17A G56U	0.178
G17A G56C	0.238
G17A G56A	0.234
C18A C35A	0.155
G17A G37U	0.146
G17A U43C	0.336
G17A U43A	0.253
G17A U43G	0.177
C18G C24G	0.107
C18G C24U	0.106
G17A A51U	0.433
G17C C35G	0.153
G17C C35U	0.15
C18G U44C	0.125
C18G U44G	0.169
G17C A59C	0.104
G17C A59G	0.122
A16G U64C	0.513

Variant	self-cleavage
C18G C27U	0.0906
C18A C63A	0.119
A16U G68A	0.953
A16U G37C	0.0966
C18A A59U	0.123
C18A A59G	0.145
G17C C54U	0.145
A16U U26G	0.461
G17A U38A	0.241
A16G U46A	0.948
G17U U53C	0.188
A16U U55A	0.624
A16U U55C	0.539
C18G G47U	0.177
C18G G47C	0.0572
A16G U53A	0.752
A16G U53G	0.784
A16G U36A	0.179
A16G U36G	0.259
C18G U49A	0.259
C18A U64A	0.108
C18A U64C	0.14
C18G A40G	0.122
A16G U38G	0.143

Variant	self-cleavage
G17A G47U	0.562
C18A A52C	0.152
G17A U55C	0.141
G17A U55A	0.195
C18G C29G	0.187
A16G U49C	0.854
A16G U49A	0.598
G17C C63A	0.162
G17A C45U	0.463
G17U A23U	0.714
C18U A59U	0.445
C18U A59C	0.32
C18G G28A	0.133
C18U A51C	0.771
A16G U43G	0.708
G17A C33A	0.21
G17A C33G	0.188
C18A A51C	0.164
A16U G47U	0.879
A16U G47C	0.906
A16U G25U	0.134
A16U G25A	0.206
G17C G65C	0.195
A16U U20G	0.108

Variant	self-cleavage
G17A C29G	0.749
A16G U44C	0.734
A16G U44G	0.84
C18G G37A	0.119
G17U C34A	0.195
C18U A40G	0.742
C18U A40U	0.378
A16U C57A	0.293
A16U U53C	0.66
C18A C24G	0.186
G17U G19C	0.16
A16G U69C	1.08
G17C A42G	0.128
C18G U21A	0.217
C18G U46G	0.226
A16U C24G	0.141
A16U C24U	0.337
G17A G28C	0.0891
G17A C32A	0.164
A16U C22U	0.168
A16U C22G	0.161
C18A U61C	0.158
G17C U21A	0.116
A16U A59C	0.427

Variant	self-cleavage
A16U A59G	0.909
C18A U20G	0.0591
C18A U20A	0.193
C18A C57U	0.157
C18A C57G	0.114
A16U G41U	0.497
A16U G41A	0.411
C18G U62G	0.173
G17U A40C	0.147
G17U A40G	0.352
G17A U26A	0.349
G17C U53A	0.144
G17C U53C	0.134
G17C G37U	0.107
A16U U46A	0.866
A16U U46G	0.78
C18A U38G	0.212
G17C C33G	0.171
G17C A51C	0.165
C18G G50C	0.201
G17U G68C	0.818
G17U G68U	0.768
G17A A60G	0.202
G17A A60C	0.189

Variant	self-cleavage
G17U C39U	0.278
C18A U62C	0.141
C18A U62A	0.133
C18A U62G	0.152
G17A A59C	0.308
G17A A59U	0.246
G17C U44C	0.141
G17C U44G	0.137
G17C U44A	0.24
G17C C32G	0.0951
C18G U61A	0.223
G17C U62C	0.194
G17C C66G	0.136
G17C C66A	0.145
A16G U67A	0.907
C18G C63G	0.104
A16U C32A	0.491
C18G A51U	0.207
C18G A51G	0.184
G17A U69A	0.703
C18G G68U	0.311
C18A U43C	0.161
C18G U55G	0.175
C18A G19A	0.135

Variant	self-cleavage
C18A U55C	0.21
A16U C27U	0.125
A16U C27G	0.115
A16U C27A	0.205
C18A A40C	0.197
G17U U64A	0.201
G17U U64G	0.183
G17U C66A	0.239
G17U C66U	0.412
G17U U46G	0.599
G17U U46A	0.624
G17U U69A	0.675
G17U U69G	0.768
C18G U20A	0.0787
A16U G30U	0.261
C18A G65C	0.217
G17C G41A	0.136
A16U U43C	0.86
A16U G19C	0.112
G17U G48A	0.748
A16U U67C	0.856
C18A U49C	0.195
C18A U49A	0.16
G17U U44G	0.31

Variant	self-cleavage
C18G A52G	0.244
C18G A52C	0.181
G17C C39U	0.117
A16U C45G	0.839
A16U C45U	0.893
G17C U55A	0.177
C18A U36G	0.145
A16U A42U	0.82
C18G A23U	0.22
C18G A23G	0.0901
C18A C34G	0.14
C18A C34U	0.16
G17C A52C	0.126
C18A G68U	0.264
A16U G65U	0.4
A16U G65C	0.462
G17A G48U	0.614
G17A G48A	0.611
G17A A52C	0.431
G17C U36C	0.118
G17C U69C	0.284
A16U A51C	0.71
A16U U44G	0.767
G17C C18A	0.118

Variant	self-cleavage
G17C C18G	0.148
G17C G48A	0.137
A16U G58U	0.814
G17C U61A	0.132
G17U C27U	0.105
G17U G30A	0.184
A16U U62A	0.74
C18G C39A	0.184
C18G C39G	0.101
C18G C39U	0.196
C18G G25A	0.174
A16G U62G	0.593
A16U A40U	0.415
A16U A40C	0.267
A16U U69G	0.972
G17U G58A	0.343
C18A G37C	0.213
G17A C27U	0.172
G17A C27G	0.134
G17A C27A	0.126
G17U U55C	0.227
G17C G50C	0.111
G17C U38A	0.155
G17A G31A	0.158

Variant	self-cleavage
G17U G25U	0.121
G17C C57G	0.0859
G17C C22U	0.145
G17A U61A	0.231
G17A U61C	0.264
C18A U44C	0.106
C18A C29A	0.127
C18A C29U	0.0504
A16U C54U	0.895
A16U C54A	0.637
A16U C54G	0.662
G17A U67C	0.491
C18A A42G	0.208
A16U G17C	0.193
G17A C35U	0.345
C18A C33A	0.153
G17C G47U	0.149
G17C G47A	0.185
C18A C54A	0.162
C18A A60G	0.195
C18A A60C	0.0911
G17U A42G	0.353
A16U G31C	0.147
A16U G31U	0.295

Variant	self-cleavage
G17U G28U	0.134
G17U A59C	0.179
G17A U20G	0.098
G17A U20A	0.0639
C18G U67G	0.229
A16U G48U	0.907
C18G A42C	0.124
G17C C27U	0.16
G17C U67A	0.204
C18U A42U	0.687
G17A C18U	0.122
G17U U67G	0.627
G17U U67A	0.513
G17A G30C	0.161
C18G A59C	0.149
G17A C22U	0.148
C18A U69C	0.517
C18G C22U	0.192
C18A G56A	0.156
C18A G56U	0.133
C18G G19C	0.0934
C18G G56A	0.107
C18G G56C	0.101
G17A U62A	0.193

Variant	self-cleavage
G17U C45A	0.447
G17U U38C	0.413
C18A U46C	0.228
G17A C24U	0.142
C18A U53G	0.17
C18A U53A	0.188
A16U C18U	0.301
A16U C18G	0.167
G17U U21C	0.14
G17A C34G	0.197
G17A U46A	0.634
G17A U46G	0.591
G17U C57G	0.16
G17U C57A	0.192
G17U U61G	0.344
G17U U61C	0.186
C18A A23C	0.128
C18A A23U	0.179
C18G G58A	0.104
G17U U43G	0.163
G17U U43A	0.218
A16U U38G	0.272
